Molecular target: FcRn β2-microglobulin complex (UniProt P55899)
Test: BLI

Kd: 6.2 nM
Substance: single-chain IgG atezolizumab (scAtezo) (antibody)
